Results as given in PMC3685266.
pKd: −log10 of the molar value. One block for each substance: values may come before it.

Columns and labels:
[1] = target: SecA_(D337C/E806C), cross-linked (clamp open) (E. coli) (UniProt P10408); experiment: steady-state ATPase activity titration; 80 nM SecA in TKM buffer, 1 mM ATP, increasing vesicles reconstituted with purified SecYEG; without proOmpA; no DTT; Kd from a ligand-binding fit
[2] = target: SecA_(D337C/K482C), cross-linked (clamp closed) (E. coli) (UniProt P10408); experiment: as above
SecA_(Δcys) (E. coli) [3] = target: SecA_(Δcys) (E. coli) (UniProt P10408); experiment: as above
[4] = target: SecA_(D337C/E806C), cross-linked (clamp open) (E. coli) (UniProt P10408); experiment: steady-state ATPase activity titration; 0.15 μM SecA in TKM buffer (pH 7.5), 1 mM ATP, 0.03% C12E9, 25°C, increasing detergent-solubilised SecYEG; no DTT; apparent Kd from a ligand-binding fit
[5] = target: SecA_(D337C/K482C), cross-linked (clamp closed) (E. coli) (UniProt P10408); experiment: as above
SecA_(Δcys) (E. coli) [6] = target: SecA_(Δcys) (E. coli) (UniProt P10408); experiment: as above
[7] = target: SecA_(D337C/E806C), released with 10 mM DTT (E. coli) (UniProt P10408); experiment: steady-state ATPase activity titration; 80 nM SecA in TKM buffer, 1 mM ATP, increasing vesicles reconstituted with purified SecYEG; without proOmpA; with 10 mM DTT; Kd from a ligand-binding fit
[8] = target: SecA_(D337C/K482C), released with 10 mM DTT (E. coli) (UniProt P10408); experiment: as above
SecA_(Δcys) (E. coli) [9] = target: SecA_(Δcys) (E. coli) (UniProt P10408); experiment: as above
[10] = target: SecA_(D337C/E806C), released with 10 mM DTT (E. coli) (UniProt P10408); experiment: steady-state ATPase activity titration; 0.15 μM SecA in TKM buffer (pH 7.5), 1 mM ATP, 0.03% C12E9, 25°C, increasing detergent-solubilised SecYEG; with 10 mM DTT; apparent Kd from a ligand-binding fit
[11] = target: SecA_(D337C/K482C), released with 10 mM DTT (E. coli) (UniProt P10408); experiment: as above
SecA_(Δcys) (E. coli) [12] = target: SecA_(Δcys) (E. coli) (UniProt P10408); experiment: as above
SecA_(Δcys) (E. coli) [13] = target: SecA_(Δcys) (E. coli) (UniProt P10408); experiment: steady-state ATPase activity titration; 0.15 μM SecA in TKM buffer, 1 mM ATP, increasing detergent-solubilised SecYEG, in the presence of 40 μM cardiolipin (CL); no DTT; apparent Kd from a ligand-binding fit
[14] = target: SecA_(D337C/E806C), cross-linked (clamp open) (E. coli) (UniProt P10408); experiment: steady-state ATPase activity titration; 80 nM SecA in TKM buffer, 1 mM ATP, increasing vesicles reconstituted with purified SecYEG; in the presence of 0.6 μM proOmpA_(Δcys); no DTT; Kd from a ligand-binding fit
[15] = target: SecA_(D337C/K482C), cross-linked (clamp closed) (E. coli) (UniProt P10408); experiment: as above
SecA_(Δcys) (E. coli) [16] = target: SecA_(Δcys) (E. coli) (UniProt P10408); experiment: as above
[17] = target: SecA_(D337C/E806C), released with 10 mM DTT (E. coli) (UniProt P10408); experiment: steady-state ATPase activity titration; 0.15 μM SecA in TKM buffer, 1 mM ATP, increasing detergent-solubilised SecYEG, in the presence of 40 μM cardiolipin (CL); with 10 mM DTT; apparent Kd from a ligand-binding fit
[18] = target: SecA_(D337C/K482C), released with 10 mM DTT (E. coli) (UniProt P10408); experiment: as above
SecA_(Δcys) (E. coli) [19] = target: SecA_(Δcys) (E. coli) (UniProt P10408); experiment: as above
[20] = target: SecA_(D337C/E806C), released with 10 mM DTT (E. coli) (UniProt P10408); experiment: steady-state ATPase activity titration; 80 nM SecA in TKM buffer, 1 mM ATP, increasing vesicles reconstituted with purified SecYEG; in the presence of 0.6 μM proOmpA_(Δcys); with 10 mM DTT; Kd from a ligand-binding fit
[21] = target: SecA_(D337C/K482C), released with 10 mM DTT (E. coli) (UniProt P10408); experiment: as above
SecA_(Δcys) (E. coli) [22] = target: SecA_(Δcys) (E. coli) (UniProt P10408); experiment: as above
SecY_(268Fl)EG (E. coli) [23] = target: SecY_(268Fl)EG (E. coli) (UniProt P0AGA2); experiment: other fluorescence titration; fluorescence quench of 5 nM SecY_(268Fl)EG, 1 mM p[NH]ppA, 20 mM Tris/HCl pH 8, 130 mM NaCl, 10% glycerol, 2 mM MgCl2, 0.03% C12E9; SecA titrated 0-1 μM; no DTT; one-site fit with linear phase
SecY_(268Fl)EG (E. coli) [24] = target: SecY_(268Fl)EG (E. coli) (UniProt P0AGA2); experiment: other fluorescence titration; fluorescence quench of 5 nM SecY_(268Fl)EG, 1 mM p[NH]ppA, 20 mM Tris/HCl pH 8, 130 mM NaCl, 10% glycerol, 2 mM MgCl2, 0.03% C12E9; SecA titrated 0-1 μM; with 10 mM DTT; one-site fit with linear phase
[25] = target: preformed SecA_(Δcys)–SecYEG membrane-bound complex (E. coli) (UniProt P10408); experiment: steady-state ATPase activity titration; 80 nM SecA with 1.08 μM SecYEG reconstituted into E. coli polar lipids in TKM buffer, 1 mM ATP, increasing purified proOmpA_(Δcys); no DTT; Kd from a ligand-binding fit
[26] = target: preformed SecA_(D337C/E806C) (released with DTT)–SecYEG membrane-bound complex (E. coli) (UniProt P10408); experiment: steady-state ATPase activity titration; 80 nM SecA with 1.08 μM SecYEG reconstituted into E. coli polar lipids in TKM buffer, 1 mM ATP, increasing purified proOmpA_(Δcys); with 10 mM DTT; Kd from a ligand-binding fit
[27] = target: preformed SecA_(D337C/K482C) (released with DTT)–SecYEG membrane-bound complex (E. coli) (UniProt P10408); experiment: as above
[28] = target: preformed SecA_(Δcys)–SecYEG membrane-bound complex (E. coli) (UniProt P10408); experiment: as above
[29] = target: SecA_(D337C/E806C), uncross-linked, clamp released from the open state with 10 mM DTT (E. coli) (UniProt P10408); experiment: SEC; Superose 6 10/300 GL, 20 mM Tris/HCl pH 7.5, 100 mM KCl, with or without 10 mM DTT; column calibrated with gel-filtration standards
[30] = target: SecA_(D337C/K482C), uncross-linked, clamp released from the closed state with 10 mM DTT (E. coli) (UniProt P10408); experiment: as above
[31] = target: SecA_(Δcys), SecA without cysteine residues (E. coli) (UniProt P10408); experiment: as above

pKd [1]: 6.19
pKd [2]: 7.54
pKd (SecA_(Δcys) (E. coli) [3]): 5.95
pKd [4]: 5.23
pKd [5]: 7.82
pKd (SecA_(Δcys) (E. coli) [6]): 5.12
pKd [7]: 6.19
pKd [8]: 6.47
pKd (SecA_(Δcys) (E. coli) [9]): 5.95
pKd [10]: 5.22
pKd [11]: 5.20
pKd (SecA_(Δcys) (E. coli) [12]): 5.11
pKd (SecA_(Δcys) (E. coli) [13]): 8.43
pKd [14]: 6.77
pKd [15]: 7.60
pKd (SecA_(Δcys) (E. coli) [16]): 6.59
pKd [17]: 8.19
pKd [18]: 8.06
pKd (SecA_(Δcys) (E. coli) [19]): 8.25
pKd [20]: 6.89
pKd [21]: 6.89
pKd (SecA_(Δcys) (E. coli) [22]): 6.72
Substance: SecYEG (from UniProt P0AGA2 1-443; P0AG96 1-127; P0AG99 1-110) (complex)

pKd (SecY_(268Fl)EG (E. coli) [23]): 7.74
pKd (SecY_(268Fl)EG (E. coli) [24]): 7.69
Substance: SecA_(Δcys) (from UniProt P10408 1-901) (enzyme)

pKd [25]: 6.30
pKd [26]: 6.46
pKd [27]: 6.62
pKd [28]: 6.11
Substance: proOmpA_(Δcys) (from UniProt P0A910 22-346) (natural protein)

pKd (SecY_(268Fl)EG (E. coli) [24]): 7.23
Substance: SecA_(D337C/E806C), released with 10 mM DTT (from UniProt P10408 1-901) (enzyme)

pKd (SecY_(268Fl)EG (E. coli) [23]): 7.22
Substance: SecA_(D337C/E806C), cross-linked (clamp open) (from UniProt P10408 1-901) (enzyme)

pKd (SecY_(268Fl)EG (E. coli) [23]): 7.54
Substance: SecA_(D337C/K482C), cross-linked (clamp closed) (from UniProt P10408 1-901) (enzyme)

pKd (SecY_(268Fl)EG (E. coli) [24]): 6.93
Substance: SecA_(D337C/K482C), released with 10 mM DTT (from UniProt P10408 1-901) (enzyme)

stoichiometry N [29]: 2
Substance: SecA_(D337C/E806C), uncross-linked, clamp released from the open state with 10 mM DTT (from UniProt P10408 1-901) (enzyme)

stoichiometry N [30]: 2
Substance: SecA_(D337C/K482C), uncross-linked, clamp released from the closed state with 10 mM DTT (from UniProt P10408 1-901) (enzyme)

stoichiometry N [31]: 2
Substance: SecA_(Δcys), SecA without cysteine residues (from UniProt P10408 1-901) (enzyme)
